These results are taken from patent publication US20110053195.

The test system of data set [1] is xylanase inhibitors present in wheat extract (WE).
The test system of data set [2] is Wheat xylanase inhibitors WXI11.5, eluted from the Xy1A1A affinity column with 50% ethylene glycol pH 11.5.

Pichia pastoris produced Xy1A1A_E79A inactive xylanase, sequence (chain, as listed by the source E79A): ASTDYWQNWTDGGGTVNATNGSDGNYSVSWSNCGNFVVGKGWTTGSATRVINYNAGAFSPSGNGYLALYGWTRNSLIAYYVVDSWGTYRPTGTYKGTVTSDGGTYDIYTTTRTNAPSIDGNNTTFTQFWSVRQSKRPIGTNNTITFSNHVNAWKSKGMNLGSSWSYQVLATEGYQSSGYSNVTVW

In the case of “Pichia pastoris produced Xy1A1A_E79A inactive xylanase”, the “recovery of xylanase activity (azo-WAXY, A595) of added Xy1A1A in wheat flour extract” value in data set [1] is “Of the 24 isolates tested, 9 showed recovery of xylanase activity”. In data set [2], this substance gave a % Residual Activity of Avizyme 1310 with WXI pH11.5 (0.58 µg/ml) and XylA1A E79A (100 µg/ml) of 121%; a % Residual Activity of XylA1A with WXI pH11.5 (0.58 µg/ml) and XylA1A E79A (100 µg/ml) of 96.1%; a Xylanase Activity (umol/min/mg) of Avizyme 1310 with WXI pH11.5 (0.58 µg/ml) and XylA1A E79A (100 µg/ml) of 6880 µmol/min/mg; a Xylanase Activity (umol/min/mg) of XylA1A with WXI pH11.5 (0.58 µg/ml) and XylA1A E79A (100 µg/ml) of 4420 µmol/min/mg.
